Patent US20110311550A1 (Scripps Research, published 2011)

Assays:
[1] = target: HCV E1E2 antigen, isolate UKN1B12.16 (hepatitis C virus, isolate UKN1B12.16); test: ELISA, Fab on E1E2 antigen
[2] = target: HCV E1E2 antigen, isolate OH8 (hepatitis C virus, isolate OH8); test: ELISA, Fab on E1E2 antigen
[3] = target: HCV E1E2 antigen, isolate CH35 (hepatitis C virus, isolate CH35); test: ELISA, Fab on E1E2 antigen
[4] = target: HCV E1E2 antigen, isolate J6E3 (hepatitis C virus, isolate J6E3, UniProt P26660 192-383; P26660 384-750); test: ELISA, Fab on E1E2 antigen
[5] = target: T1, HCV E1E2 antigen, isolate JFH (hepatitis C virus, isolate JFH, UniProt Q99IB8 192-383; Q99IB8 384-750); test: ELISA, Fab on E1E2 antigen
T1 construct: also called JFH-1

[6] = target: HCV E1E2 antigen, isolate UKN2B1.1 (hepatitis C virus, isolate UKN2B1.1); test: ELISA, Fab on E1E2 antigen
[7] = target: HCV E1E2 antigen, isolate UKN3A1.28c (hepatitis C virus, isolate UKN3A1.28c); test: ELISA, Fab on E1E2 antigen
[8] = target: HCV E1E2 antigen, isolate UKN4.21.16 (hepatitis C virus, isolate UKN4.21.16); test: ELISA, Fab on E1E2 antigen
[9] = target: HCV E1E2 antigen, isolate UKN5.15.7 (hepatitis C virus, isolate UKN5.15.7); test: ELISA, Fab on E1E2 antigen
[10] = target: HCV E1E2 antigen, isolate UKN6.5.8 (hepatitis C virus, isolate UKN6.5.8); test: ELISA, Fab on E1E2 antigen
[11] = target: HCV E1E2 complex, isolate H77 (genotype 1a) (hepatitis C virus genotype 1a, isolate …, UniProt P27958 192-383; P27958 384-746); test: Fab screen after panning on E1E2 (H77)

Binder	OD 450 nm [1] [OD 450 nm]	OD 450 nm [2] [OD 450 nm]	OD 450 nm [3] [OD 450 nm]	OD 450 nm [4] [OD 450 nm]	OD 450 nm [5] [OD 450 nm]	OD 450 nm [6] [OD 450 nm]	OD 450 nm [7] [OD 450 nm]	OD 450 nm [8] [OD 450 nm]	OD 450 nm [9] [OD 450 nm]	OD 450 nm [10] [OD 450 nm]	binding result [11]
Fab U1 (Fab, V domains shown) VH: VQLLEQSGPEVKRPGTSVKMSCKISGGASITQAMSWVRQAPGQGLEWMGGITPIFGTVNYAQKILGRVTITADEDTVSLELSSLKSEDTAVYYCAREVNLKTWNLAHPNVFDVWGQGTMLTVSS VL: ELTQSPSSLSASVGDRVTITCRASQSISSFLNWYQQKPGKAPKLLIYAASSLQSGVPPRFSGSGSGTDFTLTISSLQPEDFATYYCQQSYSTPRTFGQGTKLEIKR	0.11	0.26	0.07	0.08	0.07	0	0.11	0	0.06	0.06	
Fab Q1 (Fab, V domains shown) VH: VQLLEQSGAEVRKPGASVKVSCKASGYTFTNNGLNWVRQAPGQGLEWMGWISPYNGDTDFAHKFQGRISMTTDTSTNTAYMELRSLRSDDTAVYYCARDRNSAGGTWLFRDPPPGSTFFDSWGQGSLVTVSS VL: not shown	0.38	0.96	0.48	0.19	0.43	0.03	1.07	0.85	0.3	0.1	
Fab Q2 (Fab, V domains shown) VH: VQLLEQSGAEVKKPGASVKVSCKASGYTFTNNGLNWVRQAPGQGLEWMGWISPYNGDTDFAHKFQGRISMTTDTSTNTAYMELRSLRSDDTAVYYCARDRNSAGGTWLFRDPPPGSTFFDSWGQGSLVTVSS VL: ELTQSPASLSLSPGGSATLACRASRGVNSNLAWYHQKPGQAPRLLIYSASTRATGIPGRFSGSGFGTEFTLTINNLQSDDFGVYYCQQYDDTPQITFGQGTRLDIKR	0.21	0.43	0.19	0.25	0.18	0.15	0.35	0.17	0.05	0.16	
Fab B4 (Fab, V domains shown) VH: VQLLEQSGAEVKKPGSSVKVSCRASGSPFSSYTITWVRQAPGQGLEWMGGIILMTGKANYAQKFQGRVTITADRSTTTAYMEMSSPTSDDTAIYYCARDPYVYAGDDVWSLSRWGQGTLVIVSP VL: not shown											binds
Fab B6a (Fab, V domains shown) VH: VQLLEQSGAEVKKPGSSVKVSCRASGSPYSSYTITWVRQAPGQGLEWMGGIILMTGKANYAQKFQGRVTITADRATATAYMEMSSLTSDDTAIYYCARDPYVYAGDDVWSLSRWGQGTPVTVSS VL: LTQSPGTLSLSPGERATLSCRASQSVASNYVAWYQQKPGQAPRLLIYGTSYRATGIPGRFSGSGSGTDFTLTISGLEPEDFAVYYCQQYGSSPQTFGQGTKVEIKR											binds
Fab B6b (Fab, V domains shown) VH: VQLLEQSGAEVKKPGSSVKVSCRASGSPYSSYTITWVRQAPGQGLEWMGGIILMTGKANYAQKFQGRVTITADRATATAYMEMSSLTSDDTAIYYCARDPYVYAGDDVWSLSRWGQGTPVTVSS VL: ELTQSPGTLSLSPGERATLSCRASQSVSRGNLAWYQQKRGQPPRLLIYGASYRATGIPDRFSGSGSGTDFTLTITKLEPEDFAVYYCQQYGHSLAFGQGTKVEIKG											binds
Fab B6c (Fab, V domains shown) VH: VQLLEQSGAEVKKPGSSVKVSCRASGSPYSSYTITWVRQAPGQGLEWMGGIILMTGKANYAQKFQGRVTITADRATATAYMEMSSLTSDDTAIYYCARDPYVYAGDDVWSLSRWGQGTPVTVSS VL: not shown											binds
Fab P6 (Fab, V domains shown) VH: EVQLLESGGGVVQPGKSLTVSCAASGFTFSTFTMHWVRQAPGKWLEWVAVISHDGGTEHYADSVTGRFTISRDNSKNTLHMQMNSLRLEDTAVYFCARGGPAYYLYNDVLTGYYNVVGDFWGQGTLVTVSS VL: ELIQSPGTLFLSSGERATLSCRASQSVSSSNLAWFQHKSGRAPRLLIYGASNRAPDIPDRFSGSGSGTDFTISISRLEPEDFAVYYCQRYGDSPPITFGQGTRLEIKR	0.26	0.46	0.21	0.02	0	0.13	0.37	0.23	0.08	0.12	
Fab S1 (Fab, V domains shown) VH: VQLLEQSGAEVKKPGTSVKVSCTASGYIFTSFGISWVRQAPGQGLEWMGRIDTYNGKTNYAQKLQGRVTMTTDTYTSTAYMELRSLTSDDTAVYYCARDDCRSSTCYLAQHNWQAYYHDSWGQGTLVTVSS VL: not shown	0.26	1.32	0.79	0.07	0.21	0.03	0.55	1.12	0.18	0.08	
Fab E2 (antibody clone, not the glycoprotein) (Fab, V domains shown) VH: VGLLEQSGAELKKPGSSVKVSCKPSDGTFRAYTLSWVRQAPGQTLEWLGRIMPTVGITNYAQKFQGRVTISADMSTATAYMQLSSLRPDDTAIYYCAKGPYVGLGEGFSEWGQGTLVTVSS VL: ELTQSPLSLPVTLGQPASISCRSSQSLVYSDGNTYLIWFQQRPGQSPRRLIYNVSNRDSGVPDRFSGSGSGTDFTLKISRVEAEDLGVYYCMQGAHWPPTFGQGTRLEIKG											binds
Fab R1 (Fab, V domains shown) VH: VQLLEQSGAEVKKPGASVKVSCKASGYTFSIYGVAWVRQAPGQGLEWMGWISPQNGDTHSPQKFQGRLTMTTDTSTSTAYMELRSLRSDDTAVYFCARDYGVNFGGGSEHNLDYWGRGTRVTVSS VL: ELTQSPLSLPVTPGEPASISCRSSYSLLHINGYKYLDWYLQRPGQSPQLLIYLGSNRAPGVPDRFSGSGSGTSFTLKISRVEAEDVGVYYCMQSLQAPWTFGQGTKVEMKR	0.03	0.5	0.15	0	0	0.02	0	0.01	0	0.05	
Fab T1 (Fab, V domains shown) VH: EVQLLESGGGLVQPGGSLRLSCAASGFTFSRFWMHWVRQAPGKGLVWVARINSDGSSTTYADSVKGRFTISRDNAKNTLYLQMNSLRDEDTAVYFCARGGDSSSPYYYPMDVWGQGTTVAVSS VL: not shown	0	0.15	0	0	0	0	0	0.08	0.07	0.01	
Fab B5 (Fab, V domains shown) VH: EVQLLESGAEVKKPGSSVKVSCRASGSPYSSYTITWVRQAPGQGLEWMGGIILMTGKANYAQKFQGRVTITADRATATAYMEMSSLTSDDTAIYYCARDPYVYAGDDVWSLSRWGQGTPVIVSS VL: ELTQSPLSLPVIIGQPASISCSSSESLVDSDGNTYLHWFQQRPGQSPRRLIYKVSNRDAGVPDRFSGSGSGTDFTLKISRVEAEDVAVYYCMQATHWPPITFGPGTRLEVKR											binds
